T1: human IL4 (human, UniProt P05112 25-153, biotinylated in the SPR and competition assays (sites not given))
T1 sequence: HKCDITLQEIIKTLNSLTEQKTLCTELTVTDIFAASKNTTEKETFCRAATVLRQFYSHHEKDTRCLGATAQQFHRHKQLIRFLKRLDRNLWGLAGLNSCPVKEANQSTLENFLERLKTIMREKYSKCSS


Legend:
human IL13 [1] = biological target: T2, human IL13 (human, UniProt P35225 35-146, biotinylated in the SPR assays (sites not given)); experiment: cell-based or functional assay
human IL4 [2] = biological target: T1, human IL4; experiment: cell-based or functional assay
human IL4 [3] = biological target: T1, human IL4; experiment: Affinity to IL4; method not re-described
human IL13 [4] = biological target: T2, human IL13; experiment: Affinity to IL13; method not re-described
human IL4 [5] = biological target: T1, human IL4; experiment: IL4R binding inhibition; repeats Table 17
Procedure: AR protein inhibition of IL4 binding to IL4 RA was assessed using IL4 RA-Fc (R&D Systems), comprising the Gly24-His232 which represents the ECD (SEQ ID NO: 5) fused to a human IgGl-Fc and therefor a disulfide linked homodimer. The protein was conjugated to carboxylated Luminex microspheres according to the manufacturer's protocol. For neutralization experiments, 5000 IL4RA-Fc conjugated beads in 50 μl were added to each well of a 96-well filter plate (Millipore). Biotinylated human IL4 was mixed with an appropriate dilution of AR protein in Luminex Assay Buffer (PBS, 1% BSA, pH 7.4) to give a final concentration of 67 pM IL4. The plate was incubated for 1 hour at RT in the dark on a plate shaker, set to shake vigorously to avoid bead aggregation. The plate was washed twice with 150 μl of wash buffer (PBS, 0.1% BSA, pH 7.4, 0.05% Tween-20) using a vacuum manifold followed by the addition of 50 μl of Streptavidin PE at 25 μg/ml and incubated at RT for 20 minutes. The plates were washed again and 150 μl of sheath fluid was added and the plate was placed on the shaker for 5 minute. Plates were read using a Luminex® 100 system; data were plotted as a function of AR protein concentration. IC₅₀ values were determined by fitting the data to the equation for sigmoidal dose response using PRISM software (GraphPAD PRISM) (Table 6).

human IL13 R130Q [6] = biological target: T3, human IL13 R130Q (human, UniProt P35225 35-146, biotinylated (sites not given)); experiment: IL13Ra2 binding inhibition; repeats Table 17
T3 construct: Peprotech; also called IL13R13Q; R111Q
Procedure: (§1) Binding protein inhibition of IL13 binding to Rα2 was assessed using IL13Rα2-Fc (R&D Systems) conjugated to carboxylated Luminex microspheres according to the manufacturer's protocol. For biotinylation of IL13, recombinant human IL13 R130Q (Peprotech) was biotinylated at a 4:1 ratio using EZ-Link NHS-LC-Biotin (Pierce, #21336) for 2 hours at RT. The protein was dialyzed in PBS overnight to remove excess biotinylation reagent. For neutralization experiments, 5000 IL13 Rα2-Fc conjugated beads in 50 μl were added to each well of a 96-well filter plate (Millipore). 50 μl of biotinylated human IL13 at 1 ng/ml (80 pM) was mixed with an appropriate dilution of binding protein in Luminex Assay Buffer (PBS, 1% BSA, pH 7.4). The plate was incubated for 1 hour at RT in the dark on a plate shaker, set to shake vigorously to avoid bead aggregation. The plate was washed 3 times with 150 μl of wash buffer (PBS, 1% BSA, pH 7.4, 0.05% Tween-20) using a vacuum manifold followed by the addition of 50 μl of Streptavidin PE at 25 μg/ml and incubated at RT for 20 minutes. The plates were washed again and 100 μl of sheath fluid was added and the plate was placed on the shaker for 1 minute. Plates were read using a Luminex® 100 system; data were plotted as a function of binding protein concentration. IC₅₀ values were determined by fitting the data to the equation for sigmoidal dose response using PRIZM software (GraphPAD PRIZM).

human IL4 [7] = biological target: T1, human IL4; experiment: IL4RA binding inhibition; assay not re-described (Luminex of Example 2)
human IL13 R130Q [8] = biological target: T3, human IL13 R130Q; experiment: IL13Ra2 binding inhibition; assay not re-described (Luminex of Example 2)
Procedure: as §1

human IL13 [9] = biological target: T2, human IL13; experiment: cell-based or functional assay; remark: listed apart in the source
cyno IL13 = cyno IL13 (cynomolgus monkey, UniProt Q0PW92 21-132); experiment: cell-based or functional assay
human IL13 [10] = biological target: T2, human IL13; experiment: SPR BIAcore, biotin-IL13 on SA chip, global fit
Procedure: Recombinant human IL13 (Peprotech) was minimally biotinylated on ice using sulfo-NHS-LCLC-Biotin and desalted into the experimental running buffer containing 10 mM HEPES, 150 mM NaCl, pH 7.4, 0.01% Tween-20, and 0.1 mg/mL BSA. Biotinylated IL13 was captured at three different surface densities (from about 150, 50, and 25 RU) onto three different BIAcore SA (streptavidin) sensor chips. Each binding protein sample was tested at 40 nM as the highest concentration in a 3-fold dilution series over the three different density IL13 surfaces. The dissociation phase for the highest concentration of the binding protein sample was monitored for one hour. The response data from each of the different density surfaces was globally fitted in order to extract estimates of the kinetic and affinity constants which are provided in Table 7 below.

human IL13 R130Q [11] = biological target: T3, human IL13 R130Q; experiment: Luminex competition, 80 pM biotin-IL13 R130Q binding to IL13Ra2-Fc beads
Procedure: as §1

human IL13 [12] = biological target: T2, human IL13; experiment: SPR ProteOn, biotin-hIL13 on streptavidin, 1:1 global fit
Procedure: Complete kinetic data describing binding of various engineered binding protein molecules to human IL13 was measured using a method similar to that described above for the single point affinity analysis. Briefly, streptavidin (Pierce) was immobilized to similar levels (˜1800 RUs) on all six channels of a ProteOn GLC chip via amine coupling (pH 5.0). Biotinylated hIL13 was captured at different surface densities (600˜100 RUs) on different channels. Protein binding was tested starting at 40 nM diluted in a 3-fold concentration series over the different density IL13 surfaces; a buffer sample was injected to monitor the baseline stability. Dissociation phases for all concentrations of each binding protein sample were monitored for one hour at a flow rate of 100 μl/min. Response data for all concentration series from the different density surfaces were globally fit to a 1:1 simple langmuir binding model to extract values of the kinetic (kₒₙ, koff) and affinity (KD) constants provided in Table 16.

T2 sequence (P35225 other isoform, or with tags, fused parts or gaps limits assumed): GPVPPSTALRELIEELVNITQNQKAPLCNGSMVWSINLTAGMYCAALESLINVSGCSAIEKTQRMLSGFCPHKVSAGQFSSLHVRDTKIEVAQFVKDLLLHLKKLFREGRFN
T3 sequence (P35225 35-146 limits assumed, stated change not applied): as the sequence (P35225 other isoform, or with tags, fused parts or gaps limits assumed) above, with R110Q counted along it
cyno IL13, sequence (Q0PW92 entry or part of it): as the sequence (P35225 other isoform, or with tags, fused parts or gaps limits assumed) above, with G1S, R10K, M42V, S67N, H83R, L100V, R110Q counted along it

A549/TARC IL13 IC50 (human IL13 [1]) [nM] | HEK Stat6 human IL13 IC50 (human IL13 [1]) [nM] | A549/TARC IL4 IC50 (human IL4 [2]) [nM] | HEK stat6 hIL4 IC50 (human IL4 [2]) [nM] | Ramos Assay IC50 (human IL4 [2]) [nM] | Kd (human IL4 [3]) [nM] | Kd (human IL13 [4]) [nM] | IC50 (human IL4 [5]) [nM] | IC50 (human IL13 R130Q [6]) [nM] | IC50 (human IL4 [7]) [nM] | IC50 (human IL13 R130Q [8]) [nM] | STAT6 Phospho IC50 (human IL13 [9]) [nM] | TARC expression IC50 (human IL13 [9]) [nM] | Cyno IL13 STAT6 IC50 (cyno IL13) [nM] | Kd (human IL13 [10]) [nM] | koff (human IL13 [10]) [s⁻¹] | kon (human IL13 [10]) [M⁻¹ s⁻¹] | IC50 (human IL13 R130Q [11]) [nM] | Kd (human IL13 [12]) [nM] | Binder
– | – | – | – | – | – | – | – | – | – | – | 0.0009 | 0.109 | 0.0334 | 0.021 | 1.3e-05 | 640000 | 0.0058 | – | 9E11 (designed binder, N-Cap-(AR)3-C-Cap) DLGKKLLEAARAGQDDEVRILMANGADVNASDIYGSTPLHLAARHGHLEIVEVLLKNGADVNANDMIGDTPLHLAAYHGHLEIVEVLLKHGADVNASDITGETPLHLAAHNGHLEIVEVLLKYGADVNAQDKFGKTAFDISIDNGNEDLAEILQKLN
– | – | – | – | – | – | – | – | – | – | – | 0.0105 | 0.354 | 0.162 | 0.204 | 6.25e-05 | – | 0.058 | – | 7D7 (designed binder, N-Cap-(AR)3-C-Cap) DLGKKLLEAARAGQDDEVRILMANGADVNATDTYGSTPLHLAARHCHQEIVEVLLKHGADVNANDFIGDTPLHLAAWHGHLEIVEVLLKNGADVNAMDVTGETPLHLAAYHGHLDIVEVLLKNGADVNAQDKFGKTAFDISIDNGNEDLAEILQKLN
– | – | – | – | – | – | – | – | – | – | – | 0.0198 | 0.282 | 1.21 | 0.106 | 8e-05 | 754000 | 0.0101 | – | 6G11 (designed binder, N-Cap-(AR)3-C-Cap) DLGKKLLEAARAGQDDEVRILMANGADVNAEDILGITPLHLAAHHGHLEIVEVLLKHGADVNANDFAGYTPLHLAAVYGHLEIVEVLLKYGADVNATDAWGETPLHLAAYTGHLEIVEVLLKHDADVNAQDKFGKTAFDISIDNGNEDLAEILQKLN

Second part, the binder before the results:

Binder | A549/TARC IL13 IC50 (human IL13 [1]) [nM] | HEK Stat6 human IL13 IC50 (human IL13 [1]) [nM] | A549/TARC IL4 IC50 (human IL4 [2]) [nM] | HEK stat6 hIL4 IC50 (human IL4 [2]) [nM] | Ramos Assay IC50 (human IL4 [2]) [nM] | Kd (human IL4 [3]) [nM] | Kd (human IL13 [4]) [nM] | IC50 (human IL4 [5]) [nM] | IC50 (human IL13 R130Q [6]) [nM] | IC50 (human IL4 [7]) [nM] | IC50 (human IL13 R130Q [8]) [nM] | STAT6 Phospho IC50 (human IL13 [9]) [nM] | TARC expression IC50 (human IL13 [9]) [nM] | Cyno IL13 STAT6 IC50 (cyno IL13) [nM] | Kd (human IL13 [10]) [nM] | koff (human IL13 [10]) [s⁻¹] | kon (human IL13 [10]) [M⁻¹ s⁻¹] | IC50 (human IL13 R130Q [11]) [nM] | Kd (human IL13 [12]) [nM]
C06_28E5_V1_C01_6G9_V1 (designed binder, bispecific IL4/IL13 ankyrin repeat protein with (GGGGS)4 linker; also called bispecific AR protein) DLGKKLLEAARAGQDDEVRILMANGADVNAADDSGITPLHLAAEDGHLEIVEVLLKAGADVNAQDNLGDTPLHLAAWTGHLEIVEVLLKAGADVNAYDISGITPLHLAAFYGHLEIVEVLLKHGADVNAQDKFGKTAFDISIDNGNEDLAEILQKLNGGGGSGGGGSGGGGSGGGGSDLDKKLLEAARAGQDDEVRILMANGADVNARDSYGSTPLHLAAREGHLEIVEVLLKYGADVNAADFIGDTPLHLAAYRGHLEIVEVLLKYGADVNASDITGETPLHLAAQIGHLEIVEVLLKHGADVNAQDKFGKTAFDISIDNGNEDLAEILQKLN | 0.084 | 0.019 | 0.039 | 0.0011 | 0.0054 | 0.0217 | 0.0106 | 0.025 | 0.036 | 0.025 | 0.036 | – | – | – | – | – | – | – | –
C01_6G9_V1_C06_44C12_V2 (designed binder, bispecific IL13/IL4 ankyrin repeat protein with (GGGGS)4 linker; also called bispecific AR protein) DLDKKLLEAARAGQDDEVRILMANGADVNARDSYGSTPLHLAAREGHLEIVEVLLKYGADVNAADFIGDTPLHLAAYRGHLEIVEVLLKYGADVNASDITGETPLHLAAQIGHLEIVEVLLKHGADVNAQDKFGKTAFDISIDNGNEDLAEILQKLNGGGGSGGGGSGGGGSGGGGSDLGKKLLEAASAGQDDEVHILMANGADVNALDDSGYTPLHLAAEDGHLEIVEVLLKHGADVNAADRLGDTPLHLAAFVGHLEIVEVLLKAGADVNAVDLAGVTPLHVAAFYGHLEIVEVLLKAGADVNAQDKFGKTAFDISIDNGNEDLAEILQKLN | 0.128 | 0.015 | 0.055 | 0.0072 | 0.0086 | 0.002 | 0.0091 | 0.025 | 0.023 | 0.025 | 0.023 | – | – | – | – | – | – | – | –
C06_44C12_V2_C01_6G9_V1 (designed binder, bispecific IL4/IL13 ankyrin repeat protein with (GGGGS)4 linker; also called bispecific AR protein) DLGKKLLEAASAGQDDEVHILMANGADVNALDDSGYTPLHLAAEDGHLEIVEVLLKHGADVNAADRLGDTPLHLAAFVGHLEIVEVLLKAGADVNAVDLAGVTPLHVAAFYGHLEIVEVLLKAGADVNAQDKFGKTAFDISIDNGNEDLAEILQKLNGGGGSGGGGSGGGGSGGGGSDLDKKLLEAARAGQDDEVRILMANGADVNARDSYGSTPLHLAAREGHLEIVEVLLKYGADVNAADFIGDTPLHLAAYRGHLEIVEVLLKYGADVNASDITGETPLHLAAQIGHLEIVEVLLKHGADVNAQDKFGKTAFDISIDNGNEDLAEILQKLN | 0.063 | 0.014 | 0.016 | 0.0007 | 0.0058 | 0.0017 | 0.0116 | 0.017 | 0.028 | 0.017 | 0.028 | – | – | – | – | – | – | – | –
10A6 (designed binder, N-Cap-(AR)2-C-Cap, only 2 ARs) DLGKKLLEAARAGQDDEVRILMANGADVNAIDHFDSTPLHLAARHGHLEIVEVLLKNGADVNADDFLGDTPLHLAAYHGHLDIVEVLLKHGADVNAQDKFGKTAFDISIDNGNEDLAEILQKLN | – | – | – | – | – | – | – | – | – | – | – | 0.008 | 0.123 | 1.93 | 0.0729 | 0.000201 | 2.76e+06 | 0.0075 | –
9F8 (designed binder, ankyrin repeat protein) DLGKKLLEAARAGQDDEVRILMANGADVNASDIFGSTPLHLAARHGHLEIVEVLLKYGADVNAMDFIGDTPLHLAAYRGHLEIVEVLLKYGVDVNADDHGDTPLHLAASMGHLEIVEVLLKNGADVNAQDKFGKTAFDISIDNGNEDLAEILQKLN | – | – | – | – | – | – | – | – | – | – | – | 0.055 | – | – | 0.11 | 9.9e-05 | 930000 | – | 0.00164

Source: patent publication US20120277143A1 (Janssen / Centocor, published 2012)
